Reference: patent US20110171220A1 (ISIS INNOVATION, published 2011)

Key:
[1] = molecular target: T1, human PD-1 extracellular region / murine CD28 chimera, mutant L16R, on HEK-293T cells (human; mouse, UniProt Q15116 25-170; P31041 151-218, L16R); test: flow cytometry on transfected HEK-293T cells
T1 construct: extracellular domain;domain: transmembrane and intracellular regions; Single-residue 'drastic' mutant of m4
Description: (§1) Constructs encoding the human extracellular region of PD-1 with the transmembrane and intracellular regions of murine CD28 were cloned into the bi-cistronic mammalian expression vector pGFP2-n2 from BioSignal Packard Ltd, which also encodes GFP. Mutant constructs varying by one amino acid were prepared using the “drastic” mutagenesis approach (Davis et al. Proc Natl Acad Sci USA. 95, 5490-4 (1998)). Plasmids (2 μg/well) were transfected into HEK-293T cells in 6 well plates using Genejuice transfection reagent (Novagen; 6 μl/well). Mock and no-transfection controls were included with each experiment. Cells were harvested at 18-24 hours and stained with anti-PD1 antibodies or isotype controls at 10 μg/ml in PBS-azide for 1 h at 4° C. Cells were washed with PBS-Azide, pelleted at 1500 rpm/5 min and primary antibodies were labelled with Alexa647-conjugated donkey anti-mouse IgG (5 μg/ml) in PBS-Azide for 30 min at 4° C. Cells were washed as above and resuspended in 200 μl PBS-Azide before being analysed at the flow cytometer. Propidium iodide (5 μg/ml) was added immediately prior to analysis to identify dead cells. GFP-positive (transfected) viable cells were gated and analysed for binding of anti-PD1 antibodies. Mutants were defined as ‘knock-out’ (reducing the percentage of cells bound by the anti-PD1 antibody) or ‘knock-down’ (reducing the intensity of antibody staining relative to other PD-1 antibodies).
(§2) Following transfection, cells analysed at the flow cytometer were 85-90% viable by propidium iodide exclusion. Transfection efficiencies ranged from 15-50% (GFP⁺). Isotype controls were negative on all transfectants. […] V18R partially eliminates Clone 19 binding.

[2] = molecular target: T2, human PD-1 extracellular region / murine CD28 chimera, mutant R118D, on HEK-293T cells (human; mouse, UniProt Q15116 25-170; P31041 151-218, R118D); test: flow cytometry on transfected HEK-293T cells
T2 construct: extracellular domain;domain: transmembrane and intracellular regions; Single-residue 'drastic' mutant of m4
Description: as §1, §2

[3] = molecular target: T3, human PD-1 extracellular region / murine CD28 chimera, mutant V18R, on HEK-293T cells (human; mouse, UniProt Q15116 25-170; P31041 151-218, V18R); test: flow cytometry on transfected HEK-293T cells
T3 construct: extracellular domain;domain: transmembrane and intracellular regions; Single-residue 'drastic' mutant of m4
Description: as §1, §2

[4] = molecular target: T4, Monomeric soluble human PD-1 (human, UniProt Q15116 25-170, limits assumed); test: SPR, antibody captured by rabbit anti-mouse Fc, soluble PD-1 injected
T4 construct: also called soluble PD-1
Description: FIG. 12: Dissociation rates for Clone 2, 10 and 19 antibodies determined by surface plasmon resonance-based analysis. The three antibodies and a negative control (OX-7) were bound indirectly to the biosensor surface, i.e. via a covalently coupled rabbit anti-mouse Fc antibody. Monomeric soluble human PD-1 was then injected to saturating levels over the immobilized antibodies in the buffer 10 mM Hepes, 150 mM NaCl pH 7.4. Following injection of the soluble PD-1, the buffer only was injected, allowing dissociation of the bound soluble PD-1 from each of the antibodies simultaneously. Dissociation rates were fitted using Origin v.5.0 software (MicroCal Software Inc, Northampton, Mass.) after subtraction of the dissociation rate for OX-7 dissociating from the anti-mouse Fc antibody.

T1 sequence (Q15116 other isoform, or with tags, fused parts or gaps L16R | L16R L16R): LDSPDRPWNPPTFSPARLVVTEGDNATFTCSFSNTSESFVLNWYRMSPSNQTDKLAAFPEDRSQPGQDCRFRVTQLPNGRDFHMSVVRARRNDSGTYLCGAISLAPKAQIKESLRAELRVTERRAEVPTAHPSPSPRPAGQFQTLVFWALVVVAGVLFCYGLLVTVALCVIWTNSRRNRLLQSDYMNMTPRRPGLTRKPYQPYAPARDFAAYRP
T2 sequence (Q15116 other isoform, or with tags, fused parts or gaps R118D | R118D R118D): as the sequence (Q15116 other isoform, or with tags, fused parts or gaps L16R | L16R L16R) above, with R17L, R119D counted along it
T3 sequence (Q15116 other isoform, or with tags, fused parts or gaps V18R | V18R V18R): as the sequence (Q15116 other isoform, or with tags, fused parts or gaps L16R | L16R L16R) above, with R17L, V19R counted along it
T4 sequence (Q15116 25-170 limits assumed): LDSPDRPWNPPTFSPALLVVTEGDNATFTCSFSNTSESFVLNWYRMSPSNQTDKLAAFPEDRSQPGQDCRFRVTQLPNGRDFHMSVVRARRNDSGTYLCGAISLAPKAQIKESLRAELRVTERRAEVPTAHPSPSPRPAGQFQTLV

binding result [1] | binding result [2] | binding result [3] | binding result [4] | Binder
binds | binds | binds |  | Clone 10 anti-PD-1 antibody (antibody, IgG1, V domains shown, the printed VH ends at ...GTTVTV; also called hybridoma 08090902) VH: DVQLQESGPGLVKPSQSLSLTCTVTGYSITSDYAWNWIRQFPGNKLEWMGYINYSGSTSYNPSLKSRISITRDTSKNQFFLQLNSVTTEDTATYYCARWIGSSAWYFDVWGAGTTVTV VL: DVLMTQTPLSLPVSLGDQASISCRSGQNIVHSNGNTYLEWYLQKPGQSPKLLIYKVSNRFFGVPDRISGSGSGTDFTLKISRVEAEDLGVYFCFQGSHVPFTFGSGTKLEIK
 |  |  | binds | Clone 2 anti-PD-1 antibody (antibody, V domains shown, The printed VH ends at ...GTSVT; also called hybridoma 08090903) VH: QVQLQQPGAELVKPGASVKLSCKASGYTFTTYYLYWVRQRPGQGLEWIGGINPSNGGTNFNEKFKSKATLTVDKSSSTAYMQLNSLTSEDSAVYYCTRRDYRYDRGFDYWGQGTSVTV VL: DIVLTQSPASLAVSLGQRATISCRASKSVSTSGFNYIHWYQQKPGQPPKLLIYLASNLESGVPARFSGSGSGTDFTLNIHPVEDEDAATYYCQHSRELPLTFGAGTKLEIK
no binding (tested: 10 µg/ml) | no binding (tested: 10 µg/ml) | binds |  | Clone 19 anti-PD-1 antibody (antibody, IgG1, V domains shown, the printed VH ends at ...GTLVTV; Constant regions are named only in an embodiment (GenBank D78344, V00807); also called monoclonal antibody produced by clone 19; hybridoma 08090901) VH: QVQLQQSGAELVKPGASVKMSCKAFGYTFTTYPIEWMKQNHGKSLEWIGNFHPYNDDTKYNEKFKGKAKLTVEKSSTTVYLELSRLTSDDSAVYYCARENYGSHGGFVYWGQGTLVTV VL: ENVLTQSPAIMSASPGEKVTMTCRASSSVISSYLHWYQQKSGASPKLWIYSTSNLASGVPDRFSGSGSGTSYSLTISSVEAEDAATYYCQQYNGYPLTFGAGTKLEIK
